Numbering of substitutions follows the chain as printed. Names and notes keep the numbering of the source.
T1: EsCas13d, nuclease-dead (Eubacterium siraeum, UniProt B0MS50, R295A;H300A;R849A;H854A)
T1 sequence: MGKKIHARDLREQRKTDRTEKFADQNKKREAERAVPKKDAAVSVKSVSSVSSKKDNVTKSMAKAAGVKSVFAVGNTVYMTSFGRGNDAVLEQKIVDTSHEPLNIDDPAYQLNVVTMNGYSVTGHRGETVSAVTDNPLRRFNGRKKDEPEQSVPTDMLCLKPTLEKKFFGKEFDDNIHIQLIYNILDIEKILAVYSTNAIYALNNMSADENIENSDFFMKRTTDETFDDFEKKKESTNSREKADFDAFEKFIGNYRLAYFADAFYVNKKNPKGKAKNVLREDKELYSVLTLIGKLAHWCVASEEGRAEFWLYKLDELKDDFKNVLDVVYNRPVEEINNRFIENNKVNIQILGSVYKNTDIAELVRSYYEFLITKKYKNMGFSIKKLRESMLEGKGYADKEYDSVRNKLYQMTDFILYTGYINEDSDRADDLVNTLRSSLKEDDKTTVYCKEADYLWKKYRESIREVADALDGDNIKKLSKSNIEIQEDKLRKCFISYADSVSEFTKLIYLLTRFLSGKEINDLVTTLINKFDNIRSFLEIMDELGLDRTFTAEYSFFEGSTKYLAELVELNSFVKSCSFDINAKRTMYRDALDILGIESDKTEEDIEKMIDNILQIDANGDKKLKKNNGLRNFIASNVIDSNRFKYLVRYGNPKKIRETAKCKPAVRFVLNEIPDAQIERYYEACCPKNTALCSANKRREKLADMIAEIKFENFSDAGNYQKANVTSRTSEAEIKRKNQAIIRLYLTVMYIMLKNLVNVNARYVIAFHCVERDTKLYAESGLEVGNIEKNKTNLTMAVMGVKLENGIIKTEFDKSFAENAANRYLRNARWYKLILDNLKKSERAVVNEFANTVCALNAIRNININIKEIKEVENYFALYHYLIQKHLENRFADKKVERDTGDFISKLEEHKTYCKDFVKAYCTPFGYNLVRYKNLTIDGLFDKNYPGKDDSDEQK

B1: target 2 MT 5'PFS UGA 3'PFS CUA (mixed)
RNA 1: CACCCGUGCAAAAUUGCAGGGGUCUAAAACCUUCUCCAAAUUGUUUCAUCCU
RNA 2: GGGAAUGGAUCCACAUCUACGAAUUCUGAAGGAUGAAACAAUUUGGAGAAGCUAAGAUCGGAAGAGCACACGU
B2: target 2 MT 5'PFS UAC 3'PFS AGA (mixed)
RNA 1: B1 RNA 1
RNA 2: B1 RNA 2 with G28A, A29C, C52A, U53G
B3: target 2 MT 5'PFS ACC 3'PFS AUA (mixed)
RNA 1: B1 RNA 1
RNA 2: B1 RNA 2 with U27A, G28C, A29C, C52A
B4: target 2 MT 5'PFS UAC 3'PFS AGC (mixed)
RNA 1: B1 RNA 1
RNA 2: B1 RNA 2 with G28A, A29C, C52A, U53G, A54C
B5: target 2 MT 5'PFS UAC 3'PFS AGG (mixed)
RNA 1: B1 RNA 1
RNA 2: B1 RNA 2 with G28A, A29C, C52A, U53G, A54G
B6: target 2 MT 5'PFS GUG 3'PFS CCG (mixed)
RNA 1: B1 RNA 1
RNA 2: B1 RNA 2 with U27G, G28U, A29G, U53C, A54G
B7: target 2 MT 5'PFS CGG 3'PFS UGA (mixed)
RNA 1: B1 RNA 1
RNA 2: B1 RNA 2 with U27C, A29G, C52U, U53G
B8: target 2 MT 5'PFS UAA 3'PFS CGC (mixed)
RNA 1: B1 RNA 1
RNA 2: B1 RNA 2 with G28A, U53G, A54C
B9: target 2 MT 5'PFS AGU 3'PFS CCA (mixed)
RNA 1: B1 RNA 1
RNA 2: B1 RNA 2 with U27A, A29U, U53C
B10: target 2 MT 5'PFS ACC 3'PFS AUU (mixed)
RNA 1: B1 RNA 1
RNA 2: B1 RNA 2 with U27A, G28C, A29C, C52A, A54U
B11: target 2 MT 5'PFS UGC 3'PFS CCA (mixed)
RNA 1: B1 RNA 1
RNA 2: B1 RNA 2 with A29C, U53C
B12: target 2 MT 5'PFS UAU 3'PFS UCA (mixed)
RNA 1: B1 RNA 1
RNA 2: B1 RNA 2 with G28A, A29U, C52U, U53C
B13: target 2 MT 5'PFS CGG 3'PFS UGU (mixed)
RNA 1: B1 RNA 1
RNA 2: B1 RNA 2 with U27C, A29G, C52U, U53G, A54U
B14: target 2 MT 5'PFS ACC 3'PFS AUC (mixed)
RNA 1: B1 RNA 1
RNA 2: B1 RNA 2 with U27A, G28C, A29C, C52A, A54C
B15: target 2 MT 5'PFS UAC 3'PFS UAC (mixed)
RNA 1: B1 RNA 1
RNA 2: B1 RNA 2 with G28A, A29C, C52U, U53A, A54C
B16: target 2 MT 5'PFS UAC 3'PFS UAG (mixed)
RNA 1: B1 RNA 1
RNA 2: B1 RNA 2 with G28A, A29C, C52U, U53A, A54G
B17: target 2 MT 5'PFS ACA 3'PFS UCC (mixed)
RNA 1: B1 RNA 1
RNA 2: B1 RNA 2 with U27A, G28C, C52U, U53C, A54C
B18: target 2 MT 5'PFS UGC 3'PFS CCG (mixed)
RNA 1: B1 RNA 1
RNA 2: B1 RNA 2 with A29C, U53C, A54G
B19: target 2 MT 5'PFS GAC 3'PFS CGA (mixed)
RNA 1: B1 RNA 1
RNA 2: B1 RNA 2 with U27G, G28A, A29C, U53G
B20: target 2 MT 5'PFS CGC 3'PFS CCG (mixed)
RNA 1: B1 RNA 1
RNA 2: B1 RNA 2 with U27C, A29C, U53C, A54G
B21: target 2 MT 5'PFS CGG 3'PFS UGC (mixed)
RNA 1: B1 RNA 1
RNA 2: B1 RNA 2 with U27C, A29G, C52U, U53G, A54C
B22: target 2 MT 5'PFS CUA 3'PFS CAC (mixed)
RNA 1: B1 RNA 1
RNA 2: B1 RNA 2 with U27C, G28U, U53A, A54C
B23: target 2 MT 5'PFS CUU 3'PFS AGA (mixed)
RNA 1: B1 RNA 1
RNA 2: B1 RNA 2 with U27C, G28U, A29U, C52A, U53G
B24: target 2 MT 5'PFS CGC 3'PFS CCA (mixed)
RNA 1: B1 RNA 1
RNA 2: B1 RNA 2 with U27C, A29C, U53C
B25: target 2 MT 5'PFS ACC 3'PFS AUG (mixed)
RNA 1: B1 RNA 1
RNA 2: B1 RNA 2 with U27A, G28C, A29C, C52A, A54G
B26: target 2 MT 5'PFS GUG 3'PFS CCA (mixed)
RNA 1: B1 RNA 1
RNA 2: B1 RNA 2 with U27G, G28U, A29G, U53C
B27: target 2 MT 5'PFS ACA 3'PFS UCU (mixed)
RNA 1: B1 RNA 1
RNA 2: B1 RNA 2 with U27A, G28C, C52U, U53C, A54U
B28: target 2 MT 5'PFS AGU 3'PFS CCG (mixed)
RNA 1: B1 RNA 1
RNA 2: B1 RNA 2 with U27A, A29U, U53C, A54G
B29: target 1 insG 3' of 16,insU 3' of 13 (mixed)
RNA 1: CACCCGUGCAAAAAUGCAGGGGUCUAAAACUGAGCGGAUAACCUCUCUAUGG
RNA 2: GGGAAUGGAUCCACAUCUACGAAUUCGUACCAUAGAGGAGUGUUAUCCGCUCACCGAGAUCGGAAGAGCACACGU
B30: target 1 insC 3' of 13,insA 3' of 6 (mixed)
RNA 1: B29 RNA 1
RNA 2: B29 RNA 2 with G38A, A39G, G40C, U41G, G42U, U44A, A45U, U46C, C48A
B31: target 1 U3G,A18C (mixed)
RNA 1: B29 RNA 1
RNA 2: GGGAAUGGAUCCACAUCUACGAAUUCGUACCAUCGAGAGGUUAUCCGCGCACCGAGAUCGGAAGAGCACACGU
B32: target 1 C4A,C21A (mixed)
RNA 1: B29 RNA 1
RNA 2: B31 RNA 2 with C31A, C34A, C48A, G49U

These binders were tested against T1, EsCas13d, nuclease-dead (assay: crRNA (strand 1, pre-loaded); Mg2+; 40 mM Tris-HCl pH 7.5, 150 mM NaCl, 6 mM MgCl2, 1 mM DTT, 0.1% Tween-20, 0.2 mg/ml BSA; 25 C; 10 min per concentration, then washed). Details: tags: His6-TwinStrep-SUMO cleaved; N-terminal SNAP kept (SNAP-Surface 488); label: 3' end held by stalled T7 RNA polymerase.

Point of comparison: B28, Kd 10.2 ± 0.9 nM. Against it:
- B1 — within error, 8.7 ± 1.1 nM
- B2 — 1.5-fold lower, 6.7 ± 0.9 nM
- B3 — within error, 6.7 ± 3.2 nM
- B4 — 2.4-fold lower, 4.2 ± 0.5 nM
- B5 — 2.2-fold lower, 4.7 ± 0.7 nM
- B6 — within 1.5-fold, 13.6 ± 0.9 nM
- B7 — within 1.5-fold, 6.9 ± 1.3 nM
- B8 — 2.4-fold lower, 4.3 ± 0.5 nM
- B9 — 3.5-fold higher, 36 ± 11 nM
- B10 — within 1.5-fold, ~12 nM
- B11 — within error, 16 ± 5 nM
- B12 — 2.4-fold higher, 24 ± 5 nM
- B13 — within error, 9.3 ± 1.6 nM
- B14 — 1.9-fold lower, 5.5 ± 0.7 nM
- B15 — 1.6-fold lower, 6.2 ± 0.8 nM
- B16 — 1.5-fold lower, 6.7 ± 0.6 nM
- B17 — within error, 10 ± 2.5 nM
- B18 — 6-fold higher, 61 ± 15 nM
- B19 — within 1.5-fold, 13.6 ± 1.5 nM
- B20 — within error, 8.1 ± 1.3 nM
- B21 — 2.4-fold lower, 4.3 ± 0.5 nM
- B22 — 3.4-fold lower, 3.01 ± 0.32 nM
- B23 — 3.5-fold lower, 2.9 ± 0.4 nM
- B24 — 2.2-fold higher, 22 ± 4 nM
- B25 — 1.8-fold lower, 5.8 ± 1.5 nM
- B26 — 2.1-fold higher, 21.2 ± 1.8 nM
- B27 — within error, 8.6 ± 2.3 nM
- B29 — 2.3-fold higher, 23.2 ± 3.2 nM
- B30 — within error, 11.7 ± 0.9 nM
- B31 — 5.1-fold higher, 52 ± 4 nM
- B32 — 4-fold higher, 41 ± 9 nM

Source: publication PMC10786891, “Massively parallel profiling of RNA-targeting CRISPR-Cas13d”
